According to PMC5431086, “The Rational Design of Therapeutic Peptides for Aminopeptidase N using a Substrate-Based Approach” (Scientific Reports, 2017):
Starred links: 1 amine or outer side, 2 acyl side, 3 side chain; linkers in the order of their positions; H or OH if unused. Positions of bridges follow the written chain, without caps; N, C: chain ends. No end group written: not given here. *: point of attachment. Suc = O=C(CCC(=O)[*:2])[*:1]; Cbz = O=C(OCc1ccccc1)*; For = O=C*

Columns and labels:
[1] = biological target: recombinant human aminopeptidase N (hAPN) (human) (UniProt P15144); experiment: enzyme inhibition assay (competition with the fluorogenic substrate H-Ala-AMC); 0.1 μM APN, 100 μM H-Ala-AMC, 100 mM Tris pH 7.2, Brij 35 0.0002% w/v, 37 °C, triplicate; inhibition competitive, Ki from the IC50 by the Cheng-Prusoff equation
[2] = biological target: aminopeptidase N on the surface of PC3 cells (human (endogenous in PC3)) (UniProt P15144)
chymotrypsin = experiment: enzyme inhibition assay (panel of proteases); cyc-LHSPW tested against a panel of cancer-associated proteases (Fig. 5A); conditions not given

aminopeptidase N on the surface of PC3 cells (human (endogenous in PC3)), sequence (P15144 whole entry): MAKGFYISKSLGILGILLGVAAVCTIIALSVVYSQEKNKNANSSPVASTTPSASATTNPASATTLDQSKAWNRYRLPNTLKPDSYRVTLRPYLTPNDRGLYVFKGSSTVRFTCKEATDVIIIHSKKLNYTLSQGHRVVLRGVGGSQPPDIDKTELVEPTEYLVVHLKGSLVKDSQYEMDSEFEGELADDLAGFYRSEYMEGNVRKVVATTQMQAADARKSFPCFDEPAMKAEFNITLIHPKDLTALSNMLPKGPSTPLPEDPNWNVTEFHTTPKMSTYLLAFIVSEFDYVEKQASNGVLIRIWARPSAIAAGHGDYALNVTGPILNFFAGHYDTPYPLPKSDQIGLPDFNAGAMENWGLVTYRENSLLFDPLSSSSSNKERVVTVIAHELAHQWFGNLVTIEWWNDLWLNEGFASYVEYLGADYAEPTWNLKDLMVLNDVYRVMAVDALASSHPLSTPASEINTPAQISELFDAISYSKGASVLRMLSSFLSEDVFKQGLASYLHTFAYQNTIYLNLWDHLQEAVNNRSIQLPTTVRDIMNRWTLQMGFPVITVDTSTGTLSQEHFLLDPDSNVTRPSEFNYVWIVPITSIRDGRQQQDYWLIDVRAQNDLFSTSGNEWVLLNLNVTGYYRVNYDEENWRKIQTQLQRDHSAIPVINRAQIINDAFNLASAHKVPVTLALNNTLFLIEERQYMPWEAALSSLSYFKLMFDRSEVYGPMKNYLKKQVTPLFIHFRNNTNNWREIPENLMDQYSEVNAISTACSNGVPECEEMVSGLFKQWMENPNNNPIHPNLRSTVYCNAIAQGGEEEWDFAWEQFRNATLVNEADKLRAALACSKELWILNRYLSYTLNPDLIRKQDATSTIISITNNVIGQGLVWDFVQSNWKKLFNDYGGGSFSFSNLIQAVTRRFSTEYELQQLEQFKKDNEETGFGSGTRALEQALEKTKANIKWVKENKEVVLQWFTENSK

LDSTF was tested, and the IC50 [1] was > 500 µM.

For DSTF, the IC50 [1] was > 500 µM.

In the case of Cbz-HSPW [Cbz-HSPW], the Ki [1] is reported as > 500 µM.

For CPHSPWC (disulfide 1-7) [cyc-PHSPW], the Ki [1] was > 500 µM.

DARK was tested, and the IC50 [1] was > 500 µM.

INDFL was tested, and the IC50 [1] was > 500 µM.

FSLSK was tested, and the IC50 [1] was > 500 µM.

CLDSTFC (disulfide 1-7) [cyc-LDSTF] was tested, and the Ki [1] was > 500 µM.

For CLHSC (disulfide 1-5) [cyc-LHS], the Ki [1] was > 500 µM.

With Suc-LHSPW [Suc-LHSPW] the Ki [1] was > 500 µM.

With For-HSPW [For-HSPW] the Ki [1] was > 500 µM.

In the case of SKSGQ, the IC50 [1] is reported as > 500 µM.

LHSPW was tested, and the IC50 [1] was 10.6 µM.

ADARK was tested, and the IC50 [1] was > 500 µM.

Ac-LHSPW [Ac-LHSPW] was tested, and the Ki [1] was > 500 µM.

EHSPW showed an IC50 [1] of 115 µM.

In the case of CAHSPWC (disulfide 1-7) [cyc-AHSPW], the Ki [1] is reported as > 500 µM.

With AHSPW the IC50 [1] was 9.4 µM.

Suc-HSPW [Suc-HSPW] was tested, and the Ki [1] was > 500 µM.

With EPKVA the IC50 [1] was > 500 µM.

FYLRE was tested, and the IC50 [1] was > 500 µM.

For For-LHSPW [For-LHSPW], the Ki [1] was > 500 µM.

For FDWWG, the IC50 [1] was > 500 µM.

For HSPW, the IC50 [1] was 43.3 µM.

Cbz-LHSPW [Cbz-LHSPW] was tested, and the Ki [1] was > 500 µM.

For PHSPW, the IC50 [1] was 82.5 µM.

With CADARKC (disulfide 1-7) [cyc-ADARK] the Ki [1] was > 500 µM.

For AHLFN, the IC50 [1] was > 500 µM.

CLHSPWC (disulfide 1-7) [cyc-LHSPW] was tested, and the tumor volume of PC3 xenografts at day 35, mice treated with 40 mg/kg cyc-LHSPW t.i.w. x4 (saline and cyc-NGR arms >1000 mm^3) [2] was 309 mm^3, the Ki (chymotrypsin) was > 100 µM and the Ki [1] was 24.7 µM.

Ac-HSPW [Ac-HSPW] was tested, and the Ki [1] was > 500 µM.

With RDLVD the IC50 [1] was > 500 µM.

With CLHSPC (disulfide 1-6) [cyc-LHSP] the Ki [1] was 121 µM.

In the case of AHSTF, the IC50 [1] is reported as > 500 µM.
